What follows are sequences tested on Escherichia coli TOP10 (assay: shrunken log2 fold change of peptide-encoding DNA abundance (4.5 h post-induction vs induction); higher = less antimicrobial activity (less host growth inhibition)). Conditions: time post-induction: 4.5 h; library: site-saturation at positions 5, 18, 19, 20.
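Note: peptides expressed intracellularly from a pBAD plasmid library in pooled LB shake-flask culture, induced with 0.3% L-arabinose, DNA abundance read by NGS, three biological replicates, DESeq2 with apeglm shrinkage.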

Row | Sequence | shrunken log2 fold change
1 | RRIRSRPPRLPRPRPRPYFHPRP | -0.853
2 | RRIRQRPPRLPRPRPRPQATPRP | -0.00963
3 | RRIRFRPPRLPRPRPRPADLPRP | -0.294
4 | RRIRTRPPRLPRPRPRPISCPRP | 0.0135
5 | RRIRLRPPRLPRPRPRPGSVPRP | 0.0433
6 | RRIRDRPPRLPRPRPRPGCEPRP | 0.852
7 | RRIRMRPPRLPRPRPRPYDGPRP | -0.0589
8 | RRIRERPPRLPRPRPRPCTDPRP | -0.169
9 | RRIRDRPPRLPRPRPRPTFHPRP | -0.148
10 | RRIRIRPPRLPRPRPRPGSFPRP | -0.0206
11 | RRIRARPPRLPRPRPRPCEEPRP | 0.622
12 | RRIRFRPPRLPRPRPRPSAMPRP | -0.0766
13 | RRIRQRPPRLPRPRPRPMRAPRP | 0.235
14 | RRIRCRPPRLPRPRPRPFFHPRP | -0.364
15 | RRIRLRPPRLPRPRPRPRHFPRP | -0.131
16 | RRIRCRPPRLPRPRPRPHSKPRP | -0.438
17 | RRIRFRPPRLPRPRPRPSVLPRP | -0.246
18 | RRIRMRPPRLPRPRPRPRIAPRP | 0.786
19 | RRIRWRPPRLPRPRPRPAVSPRP | 0.127
20 | RRIRHRPPRLPRPRPRPPSAPRP | 0.496
21 | RRIRTRPPRLPRPRPRPRWCPRP | 0.109
22 | RRIRDRPPRLPRPRPRPGVLPRP | -0.0992
23 | RRIRARPPRLPRPRPRPNYWPRP | 0.0678
24 | RRIRKRPPRLPRPRPRPSHSPRP | -0.47
25 | RRIRERPPRLPRPRPRPVAVPRP | -0.0937

Row | Sequence | shrunken log2 fold change
26 | RRIRGRPPRLPRPRPRPMYAPRP | 0.706
27 | RRIRRRPPRLPRPRPRPPANPRP | 0.731
28 | RRIRERPPRLPRPRPRPSHDPRP | -0.118
29 | RRIRNRPPRLPRPRPRPYTYPRP | -0.68
30 | RRIRRRPPRLPRPRPRPSIPPRP | -0.0753
31 | RRIRYRPPRLPRPRPRPLITPRP | -0.749
32 | RRIRVRPPRLPRPRPRPKRAPRP | 0.553
33 | RRIRPRPPRLPRPRPRPCNCPRP | -0.107
34 | RRIRARPPRLPRPRPRPLSVPRP | -0.0782
35 | RRIRARPPRLPRPRPRPCVHPRP | 1.06
36 | RRIRGRPPRLPRPRPRPYVDPRP | -0.0322
37 | RRIRWRPPRLPRPRPRPASIPRP | -0.336
38 | RRIRDRPPRLPRPRPRPIDWPRP | 0.129
39 | RRIRPRPPRLPRPRPRPFVNPRP | -0.196
40 | RRIRFRPPRLPRPRPRPWGPPRP | -0.106
41 | RRIRARPPRLPRPRPRPIISPRP | -0.129
42 | RRIRKRPPRLPRPRPRPVKMPRP | 0.0491
43 | RRIRPRPPRLPRPRPRPGKAPRP | 0.37
44 | RRIRARPPRLPRPRPRPEAVPRP | 1.59
45 | RRIRMRPPRLPRPRPRPHPGPRP | 0.293
46 | RRIRVRPPRLPRPRPRPHRDPRP | -0.198
47 | RRIRIRPPRLPRPRPRPLPHPRP | -0.0305
48 | RRIRERPPRLPRPRPRPIDMPRP | -0.123
49 | RRIRERPPRLPRPRPRPLFVPRP | -0.799
50 | RRIRYRPPRLPRPRPRPMLDPRP | -0.467

Row | Sequence | shrunken log2 fold change
51 | RRIRGRPPRLPRPRPRPAQEPRP | 0.547
52 | RRIRPRPPRLPRPRPRPVNVPRP | -0.326
53 | RRIRIRPPRLPRPRPRPMDDPRP | 0.0135
54 | RRIRDRPPRLPRPRPRPGDEPRP | 0.0587
55 | RRIRLRPPRLPRPRPRPRHCPRP | 0.232
56 | RRIRVRPPRLPRPRPRPVVYPRP | 0.0805
57 | RRIRDRPPRLPRPRPRPSHWPRP | -0.178
58 | RRIRSRPPRLPRPRPRPWAAPRP | 0.327
59 | RRIRTRPPRLPRPRPRPNIRPRP | -0.0979
60 | RRIRYRPPRLPRPRPRPTNKPRP | -0.699
61 | RRIRWRPPRLPRPRPRPQHLPRP | -0.678
62 | RRIRERPPRLPRPRPRPNSTPRP | -0.495
63 | RRIRKRPPRLPRPRPRPWVGPRP | 0.0422
64 | RRIRDRPPRLPRPRPRPRWKPRP | 0.0064
65 | RRIRQRPPRLPRPRPRPFKTPRP | -0.0381
66 | RRIRTRPPRLPRPRPRPPIFPRP | -0.245
67 | RRIRIRPPRLPRPRPRPGYLPRP | 2.69
68 | RRIRFRPPRLPRPRPRPNCIPRP | -0.342
69 | RRIRMRPPRLPRPRPRPGASPRP | 0.854
70 | RRIRERPPRLPRPRPRPSMWPRP | -0.0377
71 | RRIRHRPPRLPRPRPRPVVFPRP | -0.147
72 | RRIRSRPPRLPRPRPRPCYVPRP | -0.338
73 | RRIRLRPPRLPRPRPRPCNKPRP | -0.686
74 | RRIRDRPPRLPRPRPRPGMRPRP | 1.02
75 | RRIRQRPPRLPRPRPRPHVMPRP | -0.444

From the supplement of paper PMC9112550, “Optimization of the antimicrobial peptide Bac7 by deep mutational scanning” (BMC Biology, 2022)
